The target in one data set is T1, RECON (Mus musculus, UniProt Q8VC28).
T1 construct: 6xHis-SUMO2 (N, cleaved yes); made in house; host or cells: E. coli BL21 CodonPlus (DE3)-RIL
T1 sequence (Q8VC28 1-323): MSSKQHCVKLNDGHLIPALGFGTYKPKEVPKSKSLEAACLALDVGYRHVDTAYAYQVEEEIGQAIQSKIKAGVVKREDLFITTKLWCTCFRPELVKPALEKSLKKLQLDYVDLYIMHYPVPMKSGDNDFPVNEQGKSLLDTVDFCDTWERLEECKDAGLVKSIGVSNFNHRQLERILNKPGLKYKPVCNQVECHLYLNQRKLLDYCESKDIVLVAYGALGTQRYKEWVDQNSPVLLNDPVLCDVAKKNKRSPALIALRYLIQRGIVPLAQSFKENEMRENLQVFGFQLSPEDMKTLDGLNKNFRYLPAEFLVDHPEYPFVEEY
Description: Gel shift assay, radiolabeled nucleotide binding to RECON (native PAGE). Conditions: radiolabeled nucleotide, 0, 4, 20, 100 μM protein.

In the next data set the target is T2, CapE (Escherichia coli, UniProt Q6XGD4).
T2 construct: made in house; host or cells: E. coli BL21 CodonPlus (DE3)-RIL
T2 sequence (Q6XGD4 whole entry): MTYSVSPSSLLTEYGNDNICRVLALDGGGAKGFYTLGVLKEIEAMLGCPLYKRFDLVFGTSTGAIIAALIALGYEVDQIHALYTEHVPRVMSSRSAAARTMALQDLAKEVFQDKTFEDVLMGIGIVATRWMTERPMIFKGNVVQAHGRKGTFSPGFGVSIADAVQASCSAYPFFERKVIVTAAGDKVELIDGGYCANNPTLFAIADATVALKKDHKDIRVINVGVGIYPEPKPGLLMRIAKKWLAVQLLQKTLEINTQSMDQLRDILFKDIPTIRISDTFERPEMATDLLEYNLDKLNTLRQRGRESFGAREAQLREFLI
Description: Phospholipase assay (EnzChek Phospholipase A1), CapE. Conditions: 0.1, 1, and 10-fold molar ratios of nucleotide to phospholipase. It counts as biochemical, E. coli. The method, then:
Patatin-like lipases were assayed as previously described (Gaspar & Machner (2014) Proc. Natl. Acad. Sci. U.S.A. 111:4560-4565). Briefly, CapV and CapE were produced recombinantly and catalytic activity was measured using the EnzChek® Phospholipase A1 Assay Kit (Invitrogen) according to the manufacturer's instructions. […] Assays were monitored fluorometrically Ex=460 nm/Em=515 nm, for 60 min at ˜90 s intervals at room temperature using a Biotek Synergy plate reader. Slope of each reaction in the linear range was used to calculate activity (Linear regression/straight line analysis, Prism 7.0c). A PLA1 standard curve from 20-0.02 U was used to interpolate phospholipase activity. Emission was monitored at a gain of 100 and/or 50 in order to extend the linear range of the assay.

A further data set deals with T3, Mus musculus STING (Mus musculus, UniProt Q3TBT3).
T3 construct: 6xHis-SUMO2 (N, cleaved yes); made in house; host or cells: E. coli BL21 CodonPlus (DE3)-RIL
T3 sequence (Q3TBT3 138-378 limits assumed): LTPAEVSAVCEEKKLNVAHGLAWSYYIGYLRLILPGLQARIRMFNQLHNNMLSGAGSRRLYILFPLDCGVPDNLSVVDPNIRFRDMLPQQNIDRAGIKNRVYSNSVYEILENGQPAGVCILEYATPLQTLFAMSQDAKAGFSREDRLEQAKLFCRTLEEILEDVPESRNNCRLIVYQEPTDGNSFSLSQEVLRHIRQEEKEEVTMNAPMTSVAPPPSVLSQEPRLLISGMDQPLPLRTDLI
Description: Gel shift assay, radiolabeled nucleotide binding to STING (native PAGE). The following applies: radiolabeled nucleotide, 0, 4, 20, 100 μM protein.

The nature of data set [1]: Second messenger synthesis assay ([α-32P] NTPs, TLC, MS/NMR of products). The data set is classed as biochemical. The following applies: for nucleotide product synthesized by the enzyme: purified enzyme with [α-32P] NTPs, TLC, products confirmed by MS/NMR. Here is the method: Recombinant, candidate nucleotidyltransferase reactions combined 4 μL of 5× reaction buffer (250 mM CAPSO pH 9.4, […], 25 mM Mg (OAc) 2, 5 mM DTT), 2 μL of 10× NTPs, 1 uL [α-^32P] NTPs (˜1 uCi), 1 μL of candidate enzyme in storage buffer (˜20 μM), and a remaining volume of nuclease free water. The final reactions (50 mM CAPSO pH 9.4, 50 mM KCl, 5 mM Mg (OAc) 2, 1 mM DTT, ≤5% glycerol, 25-250 μM individual NTPs, trace amounts of [(-^32P] NTP, 1 μM enzyme) were started with addition of enzyme. Where indicated, pH was altered by replacing CAPSO buffer with appropriate buffer from “StockOptions pH Buffer Kit” (Hampton Research). When appropriate, Mg^2+ was replaced with an equimolar concentration of Mn^2+(MnCl2). cGAS reactions were always carried out with Tris at pH 7.5 and supplemented with 1 μM ISD45 dsDNA (Stetson & Medzhitov. (2006) Immunity 24:93-103). Reactions were carried out with 25 μM of each indicated NTP for FIGS. 1B, 3D, 8B, 8C, and 8D and for FIGS. 2C, 2G-2I, 5B, 5C, 10A-10D, 11A, 11B, and 13D. Reactions in all other figures were carried out with 250 μM NTP. The NTP/[α-^32P] NTPs in FIG. 1B are cGAS (ATP, GTP/[α-^32P] GTP), DncV (ATP, GTP/[α-^32P] ATP), DisA (ATP/[α-^32P] ATP), WspR (GTP/[xx-^32P] GTP), and CdnE (NTP/[{-^32P] NTP). P1 nuclease treated reactions in FIG. 1C and FIG. 11B are cGAS (ATP, GTP/[α-^32P] ATP), DncV (ATP, GTP/[α-^32P] GTP), CdnE (ATP, UTP/[<- ^32P] ATP), and Lp-CdnE02 (CTP, UTP/ [α-^32P] UTP) . Where indicated, nonhydrolyzable nucleotides [Ap (c) pp, Gp (c) pp, Cp (c) pp, or Up (n) pp (Jena)] were used at 25 μM.
Reactions were incubated for 2 h at 37° C. prior to analysis unless otherwise stated. Reactions were stopped by addition of 5 U of alkaline phosphatase (New England Biolabs) which removed triphosphates on remaining NTPs and converted the remaining nucleotide [α-^32P] to ^32Pi and allowed visualization of cyclic nucleotides. After a >20 min incubation, […] (PEI-cellulose) or 1 uL (silica) of the reaction was spotted 1.5 cm from the bottom of the TLC plate, spaced 0.8 cm apart. 20 cm×20 cm F-coated PEI-cellulose TLCs (Millipore) were developed in 1.5 M KH2PO4 (pH 3.8) until the buffer front reacted ˜1 cm from the top; 20 cm×10 cm F-coated silica HP-TLC plates (Millipore) were developed in 11:7:2 1-propanol: NH4OH: H2O in a chemical fume hood for 1 hour. Plates were dried and exposed to phosphorscreen prior to detection by Typhoon™ Trio Variable Mode Imager system (GE Healthcare). All TLC data are representative of ≥3 independent experiments, with the exception of the biochemical screen which represents ≥2 independent experiments.
Cyclic nucleotides were produced in large scale using previously described methods (Sureka et al. (2014) Cell 158:1389-1401) with the following changes. Small-scale second messenger synthesis assays were scaled up to […] reactions with final conditions of 50 mM CAPSO pH 9.4, 12.5-50 mM KCl, 5-20 mM Mg (OAc) 2, 1 mM DTT, ≤5% glycerol, 250 μM individual NTPs, and 1 μM enzyme. A 20 μL aliquot of the larger reaction was removed and [cx-^32P] NTP were added to follow reaction progress. Reactions were incubated for 24 hours at which time 5 U of CIP/mL of reaction was added and the reaction was further incubated for 2-24 hours. Reactions were heat inactivated at 65° C. for 30 min, diluted to a final salt concentration of 12.5 mM, and purified by anion exchange chromatography and FPLC (either 1 mL Q-Sepharose® column, or Mono Q 4.6/100 PE, GE Healthcare). The column was washed with water and 1 mL fractions were collected during a gradient elution with 2M ammonium acetate. Fractions harboring the appropriate product were identified by A260 and silica TLC, visualizing the nucleotide products by UV-shadowing, imaging using a handheld camera, and comparing migration to paired, radiolabeled reactions. Selected fractions were concentrated by evaporation and re-suspended in 30 μL of nuclease free water for MS. […]

“Also recorded” adds a separate entry of the source.

Description for Mus musculus STING: (§1) Briefly, recombinant Mus musculus STING or RECON, at 4, 20, or 100 μM was incubated with radiolabeled nucleotide (≤1 μM final concentration) in gel shift buffer for final conditions of 50 mM Tris pH 7.5, 60 mM KCl, 5 mM Mg (OAc) 2, and 1 mM DTT. Experiments were prepared by combining 1 μL of [α-^32P] labeled nucleotide, 2 uL 5x gel shift buffer, 5 μL of nuclease free water, and started by addition of 2 μL of recombinant protein in storage buffer.
(§2) After 30 min of equilibration, bound and free nucleotide were separated by 6% native PAGE in 0.5x TBE buffer. Gels were dried, and exposed to phosphorscreen prior to detection by Typhoon Trio Variable Mode Imager system (GE Healthcare). Gel shifts were quantified with ImageQuant® 5.2 and the % bound nucleotide was calculated as a proportion of total bound and free nucleotide for each lane, after subtraction of background signal. Gel shift data is representative of ≥2 independent experiments.
Description for RECON: as §1, §2

On to `Nc1nc2c(ncn2[C@@H]2O[C@@H]3COP(=O)(O)O[C@H]4[C@@H](O)[C@H](n5cnc6c(N)ncnc65)O[C@@H]4COP(=O)(O)O[C@H]3[C@H]2O)c(=O)[nH]1` [3′3′ cGAMP, 3′-5′/3′-5′ cGAMP, reference compound], for which the “recognition/binding of nucleotide by RECON” value at RECON was “detected by both STING and RECON”. The “activation of CapE phospholipase activity” value on CapE is given as “exquisite specificity of CapE insulates this circuit from 3′3′ cGAMP”. Regarding `Nc1nc2c(ncn2[C@@H]2O[C@@H]3COP(=O)(O)O[C@H]4[C@@H](O)[C@H](n5cnc6c(=O)[nH]c(N)nc65)O[C@@H]4COP(=O)(O)O[C@H]3[C@H]2O)c(=O)[nH]1` [c-di-GMP, cyclic di-GMP, reference compound], at Mus musculus STING, the “recognition/binding of nucleotide by STING” value is reported as “detected by STING”. Turning to `Nc1ncnc2c1ncn2[C@@H]1O[C@@H]2COP(=O)(O)O[C@H]3[C@@H](O)[C@H](n4cnc5c(N)ncnc54)O[C@@H]3COP(=O)(O)O[C@H]2[C@H]1O` [c-di-AMP, cyclic di-AMP, reference compound], on RECON, the “recognition/binding of nucleotide by RECON” value was “detected by both STING and RECON”.

B1: Rm-CdnE: CdnE homolog from Rhodothermus marinus, SEQ ID NO: 198 (protein, listed as Rhodothermus marinus)
chain: MPVPESQLERWSHQGATTTAKKTHESIRAALDRYKWPKGKPEVYLQGSYKNSTNIRGDSDVDVVVQLNSVFMNNLTAEQKRRFGFVKSDYTWNDFYSDVERALTDYYGASKVRRGRKTLKVETTYLPADVVVCIQYRKYPPNRKSEDDYIEGMTFYVPSEDRWVVNYPKLHYENGAAKNQQTNEWYKPTIRMFKNARTYLIEQGAPQDLAPSYFLECLLYNVPDSKFGGTFKDTFCSVINWLKRADLSKFRCQNGQDDLFGEFPEQWSEEKARRFLRYMDDLWTGWGQ
On to B1, for which, in data set [1], the “nucleotide product synthesized by the enzyme” value (“nucleotide product synthesized” below) is “synthesized cUMP-AMP”.

B2: Ec-CdnD02: CD-NTase from Enterobacter cloacae, SEQ ID NO: 112 (protein, listed as Enterobacter cloacae)
chain: MELQPQFNEFLANIRPTDTQKEDWKSGARTLRERLKNFEPLKEIVVSTFLQGSIRRSTAIRPLGDKRPDVDIVVVTNLDHTRMSPTDAMDLFIPFLEKYYPGKWETQGRSFGITLSYVELDLVITAIPESGAEKSHLEQLYKSESVLTVNSLEEQTDWRLNKSWTPNTGWLSESNSAQVEDAPASEWKAHPLVLPDREKNEWGRTHPLAQIRWTAEKNRLCNGHYINLVRAVKWWRQQNSEDLPKYPKGYPLEHLIGNALDNGTTSMAQGLVQLMDTFLSRWAAIYNQKSKPWLSDHGVAEHDVMARLTAEDFCSFYEGIASAAEIARNALASEEPQESAQLWRQLFGSKFPLPGPQGGDRNGGFTTPSKPAEPQKTGRFA
Take B2: the “nucleotide product synthesized” value in data set [1] is “cyclic AMP-AMP-GMP (cAAG), a cyclic trinucleotide, is the major product”.

B3: CdnE: E. coli cGAS/DncV-like nucleotidyltransferase, SEQ ID NO: 166 (protein, listed as Escherichia coli)
chain: MGIPESQLDTWSHQGSIAQSASTYSIIKNALESANTKYHGKNFKVFLQGSYGNDTNIYAESDVDVVICLDDVYYSDLTQLSPEDKDAYDRAFVPATYSYTQFKQDVLEALTERFGSDVKVGDKAIVVAANGSRRKADVIASMQFRRYWKFKGHYDSQYDEGICFFNGAGERIANYPKQHSENLTLKHQASNKWLKPMVRVLKNLRSKLIADGKLKSGLAPSYYLEGLLYNVPNEKFGTSYADCFVNAMNWIQTEADKDKLVCANEQYYLLWEGTHTSWEKADAEAFIDAAIKMWNEW
Take B3: in data set [1], the “requirement of a cognate stimulus for enzyme activity” value was “constitutively active and does not require a cognate stimulus”; the “nucleotide product synthesized” value was “cyclic UMP-AMP (cUMP-AMP)”. For the same molecule, the “nucleotide product synthesized” value in data set [1] (listed as wild-type CdnE) is given as “robustly synthesized cUMP-AMP”.

B4: Em-CdnE: CdnE from Elizabethkingia meningoseptica, SEQ ID NO: 201 (protein, listed as Elizabethkingia meningoseptica)
chain: MNFSEQQLINWSRPVSTTEDLKCQNAITQITAALRAKFGNRVTIFLQGSYRNNTNVRQNSDVDIVMRYDDAFYPDLQRLSESDKAIYNAQRTYSGYNFDELKADTEEALRNVFTTSVERKNKCIQVNGNSNRITADVIPCFVLKRFSTLQSVEAEGIKFYSDDNKEIISFPEQHYSNGTEKTNQTYRLYKRMVRILKVVNYRLIDDGEIADNLVSSFFIECLVYNVPNNQFISGNYTQTLRNVIVKIYEDMKNNADYTEVNRLFWLFSNRSPRTRQDALGFMQKCWNYLGYQ
With B4, the “nucleotide product synthesized” value in data set [1] was “robustly synthesized cyclic dipurines; also recorded: synthesis of c-di-AMP, cGAMP, and c-di-GMP”.

These data come from patent publication US12545900B2, “CGAS/DNCV-like nucleotidyltransferases and uses thereof” (Dana-Farber Cancer Institute, Inc., priority 2018, dated 2026).
